Results published in paper PMC12480952 (Nature Communications, 2025).
Residue numbers refer to the chain shown, from its start. In names and notes the source's numbering stands.

B1: BCL-2ΔLΔC WT (domain or fragment, human)
chain: MAHAGRTGYDNREIVMKYIHYKLSQRGYEWDAGDDVEENRTEAPEGTESEVVHLTLRQAGDDFSRRYRRDFAEMSSQLHLTPFTARGRFATVVEELFRDGVNWGRIVAFFEFGGVMCVESVNREMSPLVDNIALWMTEYLNRHLHTWIQDNGGWDAFVELYGPSMRA
B2: BCL-2ΔLΔC A113G (domain or fragment, human)
chain: B1 chain with A72G
B3: BCL-2ΔLΔC R129L (domain or fragment, human)
chain: B1 chain with R88L
B4: BCL-2ΔLΔC F104L (domain or fragment, human)
chain: B1 chain with F63L
B5: BCL-2ΔLΔC D103Y (domain or fragment, human)
chain: B1 chain with D62Y
B6: BCL-2ΔLΔC G101V (domain or fragment, human)
chain: B1 chain with G60V
B7: BCL-2ΔLΔC V156D (domain or fragment, human)
chain: B1 chain with V115D

Each binder was assayed against FITC-BIM BH3 (FITC at the N-terminus) (assay: fluorescence polarisation).

**Q.** For B1, which EC90 is on record?
**A.** 8.6 nM

**Q.** For B2, which EC90 is on record?
**A.** 23 nM

**Q.** Which EC90 does the source give for B3 here?
**A.** 8.7 nM

**Q.** For B4, which EC90 is on record?
**A.** 1.6 nM

**Q.** With B5 as the binder, how does the EC90 read?
**A.** 21 nM

**Q.** For B6, which EC90 is on record?
**A.** 5.8 nM

**Q.** Which EC90 does the source give for B7 here?
**A.** 17 nM
